Biological target: soluble recombinant cynomolgus TCR α/β-zipper protein (cynomolgus/rhesus monkey)
Assay: ELISA, 2 µg/mL coated soluble recombinant cynomolgus TCR α/β-zipper protein

Chain of soluble recombinant cynomolgus TCR α/β-zipper protein (cynomolgus/rhesus monkey) (alpha, as listed by the source limits assumed, form in doubt, chain 1 of 2): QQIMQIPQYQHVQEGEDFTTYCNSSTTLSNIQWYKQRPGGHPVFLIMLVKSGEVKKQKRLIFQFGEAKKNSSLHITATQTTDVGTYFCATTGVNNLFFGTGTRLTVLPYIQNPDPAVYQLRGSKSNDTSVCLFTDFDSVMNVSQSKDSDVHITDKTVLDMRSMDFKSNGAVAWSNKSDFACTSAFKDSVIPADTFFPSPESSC
Chain of soluble recombinant cynomolgus TCR α/β-zipper protein (cynomolgus/rhesus monkey) (beta, as listed by the source limits assumed, form in doubt, chain 2 of 2): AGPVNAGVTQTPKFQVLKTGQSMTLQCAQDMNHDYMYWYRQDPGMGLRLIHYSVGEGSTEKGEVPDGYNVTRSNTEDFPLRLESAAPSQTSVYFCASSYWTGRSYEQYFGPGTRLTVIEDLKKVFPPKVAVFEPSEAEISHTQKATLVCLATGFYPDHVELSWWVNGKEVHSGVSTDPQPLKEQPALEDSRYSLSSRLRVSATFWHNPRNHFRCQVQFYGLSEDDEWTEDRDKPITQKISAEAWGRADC

- EC50 (read off the curve): 0.1 nM
Substance: anti-non-human primate/Rat TCRα/β antibody clone R73

Reference: US20240199740A1
